Experimental data taken from the supplement of paper PMC7877785.
± gives the uncertainty stated by the source.

Experiment: self-splicing fitness, log relative to wild type (ln ratio); higher = more splicing; Tetrahymena group I intron in knt gene, E. coli kanamycin selection, DiMSum; sequences stand for … in CUCUCU…GGAGGGAAAAGUUAUCAGGCAUGCACCUGGUAGCUAGUCUUUAAACCAAUAGAUUGCAUCGGUUUAAAAGGCAAGACCGUCAAAUUGCGGGAAAGGGGUCAACAGCCGUUCAGUACCAAGUCUCAGGGGAAACUUUGAGAUGGCCUUGCAAAGGGUAUGGUAAUAAGCUGACGGACAUGGUCCUAACCACGCAGCCAAGUCCUAAGUCAACAGAUCUUCUGUUGAUAUGGAUGCAGUUCACAGACUAAAUGUCGGUCGGGGAAGAUGUAUUCUUCUCAUAAGAUAUAGUCGGACCUCUCCUUAAUGGGAGCUAGCGGAUGAAGUGAUGCAACACUGGAGCCGCUGGGAACUAAUUUGUAUGCGAAAGUAUAUUGAUUAGUUUUGGAGUACUCGUGGUCG
In short: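 Colonies from six replicate transformations of E. coli BL21(DE3) were pooled and amplicon-sequenced on an Illumina HiSeq 2500. The library placed an intron with all eight P1ex-region nucleotides randomised inside the knt kanamycin-resistance gene on pET-22b(+), and cells grew overnight at 37°C or 30°C on LB agar with or without 25 μg/mL kanamycin (plus 100 μg/mL carbenicillin, 50 μM IPTG, 0.2% rhamnose). Fitness is the DiMSum error-weighted combination of wild-type-normalised replicate fold changes, kanamycin versus none.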

Sequence	self-splicing fitness (ln) (30 °C)	self-splicing fitness (ln) (37 °C)
CUAUAGCAAUAUUACGCGGU	-3.7 ± 0.24	-2.29 ± 0.22
UGGAAGCAAUAUUACGUAGU	-2.9 ± 0.27	-1.41 ± 0.2
UCUUAGCAAUAUUACGUUCG	-2.21 ± 0.11	-1.38 ± 0.18
UAAUAGCAAUAUUACGACUC	-3.23 ± 0.25	-1.03 ± 0.23
CCACAGCAAUAUUACGCGAC	-2.75 ± 0.17	-2.76 ± 0.26
UGAGAGCAAUAUUACGAUUG	-2.57 ± 0.27	-1.14 ± 0.27
AGCCAGCAAUAUUACGUUUC	-3.43 ± 0.18	
AAUGAGCAAUAUUACGCUGU	-1.84 ± 0.34	-2.21 ± 0.4
AACGAGCAAUAUUACGAGCU	-4.74 ± 0.36	-3.22 ± 0.27
AACAAGCAAUAUUACGAGGG	-3 ± 0.11	-1.35 ± 0.15
ACGCAGCAAUAUUACGUAGU	-2.76 ± 0.087	-1.92 ± 0.1
UUGGAGCAAUAUUACGCGUG	-3.03 ± 0.18	-0.323 ± 0.087
UCGUAGCAAUAUUACGCUUC	-3.12 ± 0.48	
GGGAAGCAAUAUUACGUUUC	-3.58 ± 0.19	-2.19 ± 0.29
AUCGAGCAAUAUUACGGGUU	-3.65 ± 0.23	-2.32 ± 0.2
AGCAAGCAAUAUUACGACUC	-1.12 ± 0.072	-0.865 ± 0.08
GUGGAGCAAUAUUACGCGCG	-1.79 ± 0.25	-2.11 ± 0.31
GCUGAGCAAUAUUACGCACA	-3.2 ± 0.39	-3.05 ± 0.4
UAGGAGCAAUAUUACGACCA	-1.68 ± 0.13	-0.415 ± 0.19
CGCGAGCAAUAUUACGGACA		-0.573 ± 0.34

Sequence	self-splicing fitness (ln) (30 °C)	self-splicing fitness (ln) (37 °C)
GAUUAGCAAUAUUACGGCAG	-2.78 ± 0.31	-1.84 ± 0.23
UUCCAGCAAUAUUACGUGGG	-3.68 ± 0.18	-2.56 ± 0.16
UUUAAGCAAUAUUACGCGAA	-1.43 ± 0.12	-0.145 ± 0.15
CGCGAGCAAUAUUACGCCUC	-1.53 ± 0.44	-1.38 ± 0.43
AAUUAGCAAUAUUACGCACU	-0.0585 ± 0.12	-0.106 ± 0.15
UUUGAGCAAUAUUACGCUGC	-3.12 ± 0.47	
GCACAGCAAUAUUACGUAAC	-1.83 ± 0.092	-0.651 ± 0.11
AGAUAGCAAUAUUACGCCUC	-3.23 ± 0.26	-2.26 ± 0.29
CUGUAGCAAUAUUACGCCUU	-3.46 ± 0.35	-2.74 ± 0.3
GGAUAGCAAUAUUACGCUGU	-1.65 ± 0.25	-2.68 ± 0.38
CCGUAGCAAUAUUACGCACC		-2.21 ± 0.37
CGUGAGCAAUAUUACGUAGU	-4.5 ± 0.36	-2.19 ± 0.2
UGCAAGCAAUAUUACGGCAC	-3.59 ± 0.4	-3.28 ± 0.33
GUUCAGCAAUAUUACGCUUA	-0.682 ± 0.12	-0.0254 ± 0.12
UUCAAGCAAUAUUACGCACA	-0.531 ± 0.089	0.153 ± 0.13
GAUUAGCAAUAUUACGCACC	-1.5 ± 0.081	-0.681 ± 0.084
AACGAGCAAUAUUACGAUUU	-0.71 ± 0.067	-0.294 ± 0.082
UUACAGCAAUAUUACGCUCC	-1.45 ± 0.24	-1.3 ± 0.24
AAAAAGCAAUAUUACGCGAG	-0.943 ± 0.085	-1.06 ± 0.11
